For this assay, the target named is human Claudin18.2 (human). Description: cell-based or functional assay.

B1: h1901-11 (antibody, human IgG1, kappa, V domains shown)
VH: EVQLVESGGGLVQPGGSLRLSCAASGFTFSDYGIHWVRQAPGKGLEWIAYISRGSSTIYYADTVKGRFTISRDNAKNSLYLQMTSLRAEDTAVYYCARGGYDTRNAMDYWGQGTTVTVSS
VL: DIVMTQSPDSLAVSLGERATISCKSSQSLLNSGNQKNYLAWYQQKPGQPPKLLIYGASTRASGVPDRFSGSGSGTDFTLTISSLQAEDVAIYHCQNDLYYPLTFGQGTKLEIKR
In the case of B1, the “ADCC effect, IC50 (ng/ml), NUGC4 cells with high Claudin18.2 expression” value amounted to 26.2 ng/mL; the “ADCC effect, IC50 (ng/ml), NUGC4 cells with low Claudin18.2 expression” value is 22.4 ng/mL; the “ADCC effect, IC50 (ng/ml), NUGC4 cells with moderate Claudin18.2 expression” value worked out at 15.3 ng/mL.

B2: IMAB-362 (antibody, human IgG1, kappa, V domains shown)
VH: QVQLQQPGAELVRPGASVKLSCKASGYTFTSYWINWVKQRPGQGLEWIGNIYPSDSYTNYNQKFKDKATLTVDKSSSTAYMQLSSPTSEDSAVYYCTRSWRGNSFDYWGQGTTLTVSS
VL: DIVMTQSPSSLTVTAGEKVTMSCKSSQSLLNSGNQKNYLTWYQQKPGQPPKLLIYWASTRESGVPDRFTGSGSGTDFTLTISSVQAEDLAVYYCQNDYSYPFTFGSGTKLEIKR
B2: the “ADCC effect, IC50 (ng/ml), NUGC4 cells with high Claudin18.2 expression” value was determined as 133 ng/mL; the “ADCC effect, IC50 (ng/ml), NUGC4 cells with low Claudin18.2 expression” value worked out at 183 ng/mL; the “ADCC effect, IC50 (ng/ml), NUGC4 cells with moderate Claudin18.2 expression” value is 210 ng/mL.

The values are drawn from patent publication US20230312725A1 (JIANGSU HENGRUI PHARMACEUTICALS, published 2023).
